Biological target: mRXFP1 (UniProt Q9HBX9)
Experiment: cell-based or functional assay

mRXFP1, sequence (Q9HBX9 whole entry): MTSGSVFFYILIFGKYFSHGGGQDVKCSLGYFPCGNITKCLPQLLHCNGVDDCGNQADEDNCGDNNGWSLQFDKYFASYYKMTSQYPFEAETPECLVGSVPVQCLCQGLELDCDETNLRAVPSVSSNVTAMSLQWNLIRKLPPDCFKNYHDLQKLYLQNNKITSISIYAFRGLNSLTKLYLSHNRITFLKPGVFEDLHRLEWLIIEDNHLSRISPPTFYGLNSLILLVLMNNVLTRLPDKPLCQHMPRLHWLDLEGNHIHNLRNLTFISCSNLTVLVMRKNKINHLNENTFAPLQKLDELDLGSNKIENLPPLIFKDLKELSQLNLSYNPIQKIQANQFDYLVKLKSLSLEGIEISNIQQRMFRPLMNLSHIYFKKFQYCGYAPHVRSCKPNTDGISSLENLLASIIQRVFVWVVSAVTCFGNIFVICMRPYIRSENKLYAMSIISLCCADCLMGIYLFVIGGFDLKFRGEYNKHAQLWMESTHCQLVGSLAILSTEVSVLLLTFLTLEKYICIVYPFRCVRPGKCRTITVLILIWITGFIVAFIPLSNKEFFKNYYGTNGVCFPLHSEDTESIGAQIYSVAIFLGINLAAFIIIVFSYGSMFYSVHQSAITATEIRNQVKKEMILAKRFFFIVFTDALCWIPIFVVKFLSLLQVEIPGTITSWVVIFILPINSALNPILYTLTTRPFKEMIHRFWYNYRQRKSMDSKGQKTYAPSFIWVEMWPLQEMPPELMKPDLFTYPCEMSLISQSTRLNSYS

intracellular cAMP in human fibroblast-like synoviocytes: > 15 fold
Substance: recombinant RLX (serelaxin) (from UniProt P04090 25-53; P04090 162-185) (ligand)
